# From the DeepSol protein solubility set
# Assay: soluble on expression in E. coli; label from the status in PepcDB or PDB records
row,Sequence,soluble on expression in E. coli
1,MGSDKIHHHHHHMDAIVNTVNCVGVMGKGIALQFKNKWPANYSAYEAACKAKQVRPGTMFVFDSGGLVKPNYIINFPTKDHWRGKSRVEFIRDGLVDLVAQVKRLGIRSIAIPPLGCGNGGLEWDEVRPLIEQAFAVLPDVEVRLFAPAGAPDPKSMEVKTSRPKMTAGRAAILKVLDTYRSLEYGLSRIEVQKLAYFLQEAGESLSLSFVKNQYGPYSDQLRHALNRMEGHFIRGLGDGVVDAEIEPLEDALAEAEQYVSASGHAALARHVERVANLIEGFQTPYGMELLATVHWVATHEPTAHSFDQVVSAVHAWNERKARIMQPAHVRAAWSRLDAQGWL,not soluble
2,MEGNHEEPQGGLEELSGRWHSVALASNKSDLIKPWGHFRVFIHSMSAKDGNLHGDILIPQDGQCEKVSLTAFKTATSNKFDLEYWGHNDLYLAEVDPKSYLILYMINQYNDDTSLVAHLMVRDLSRQQDFLPAFESVCEDIGLHKDQIVVLSDDDRCQGSRDLEHHHHHH,soluble
3,MSLHQILVVDDDAVSQQFLVMVLQRLGYANVVVASDGLDALIQLDAGDRRFDVIFCDLDMPRMDGIEFVRHLGERAFQGKLLISSGFDERVLESVAELARMYDLWLAGVLPKPINHQALQRLINQAPPASRHPTHAVAPPTEDELRAAIGKGEIRPFLQPQVLLADGRIRSAEVLARWQHPRLGLIGPQQFIQLAEHSSLITELTLQLLKQAAASMDRLPSETPMEMSLNLSVASLNEIALVSQFERILNDCGFPFSRLTVEVTETGLMANPTRALELLTRLRLKGARLAIDDFGTGFASMDRLSRIPFTELKIDKSFVIDAARNPTNLSIVRASAELGRQLGLVVVAEGVATESEWRLCQQLDVEIVQGSFISPPVDAESFRRWLLKHRGEGHHHHHH,soluble
4,YATPDNMLSRFGEQDLTLLTEREDSVPGEINLALLEQALSDASAEIDGYIAGRYVLPLTTVPAVLERNCCDIARYFLYGDKAPEQVEKRYAAVVKFLTAVSKGDISLGLATTGETADQSELVISIESAGSVFGRKSAKGF,not soluble
5,MSRVPYGYEIIQLLEQLAPKQLAMEGDRIGLQIGTLNKPVKKVMIALDVLEDVVVEAIDQQVDLIIAHHPPLYRPLKQLLTDDGHGRMIAACIKHDIAVYAAHTNLDVADGGLNDWLAEALGLNDTAVLVPTYTEPLKKLVVYVPVTHAEVVRKALGDAGAGHIGRYSHCTFNSRGVGTFLPHEGARPFIGEQGRLEEVEEVRIETIVPASLEREAIQAMLAVHPYEEVAYDIYPLDNEGRRFGLGRIGRLPQPVTLGAFAEQVKTAFSVPAVRVVGRLDDLVQTVAVLGGDGNKFVAAAASAGADVYVTGDVYYHTAHDAQALGLHIIDPGHNVEKIMKEGVARYLITELSKRQWEAEVVASSVHTDPFQFV,not soluble
6,MSLSPALSAPKPLRFPANPAPTALKQFALTLQSESYRYRTPMKFGGRVVEEVTVLTAQCTATNQAGQVADGDQIGIGSMTMGVAWAWPDASVADGTKLEVVLELASRMAAQVNEASGTLTGHPMEICLQLASQREDLVAAVAAGHDLTAPIPELAILLAASPIEAALFDAHGKAAGQSSYSLLSAEHLPPDLGEMTGDDRYAGLRLDQFISSSPVATLPLYHLVGALDPLTQDDLAEPVGDGLPETLGEWITRNELTHLKIKLNGDDADWDFRRVRDINTVANETTDRGSSTGKPWWFSLDFNERCEDEAYVLGLLDRLESECPEAFERIQYIEQPTHRDLKRPGAVTMHQAAARIPVVIDESLTGLESLHLAVSQGYSGIALKACKGHAEALLLGAIAVHENLFLCVQDLTCVGASLLHSASLSAHIPGVAAVESNGRQYCPEGNAEWMACFGPMFEVRGGSVPTSCLDGPGLGYEGHHHHHH,soluble
7,MTYELAIGDRAYSSWSLRGWLLFDAFGLPVRVRRARLYTDELPALLADFAPARTVPAMKTSAGTVVAESLAIAEELASRHPEAGIWPADPEHRAVARALAAEMHAGFGALRSHCPMNLRVSYEGCDPPEAVQADLARLERIWAEARARCSTEGPWLCGSYSAADVFFAPVAARIAGYGLAVSPEAQAYVAAHLAHPSFRRWRAMGAVDGADQEFYARPYPPRPWPGPAPLPARAVADGVAENDACPYSGAPVTDLLEIEGRIFGFCNPFCRDKTVADPEAWPAFTALLRHREGS,not soluble
8,MRDYVEIGMGREARRTYHLDSVAIVPSRRTRSSKDVDTTWHIDAYTFDIPFMSHPTDALATPDFVIEMDKQGGLGVINAEGLWGRHADLDAAIQEVITAYGDDELDLGSCNRATKKLQELHAAALDTELLVERIAQVRSSGAT,not soluble
